Assay results from patent publication US6891027.

Assays:
[1] = biological target: CD21 on mouse B cells (mouse) (UniProt P19070); assay: cell-based or functional assay
[2] = biological target: CD21 on Raji B lymphoblastoid cells (human) (UniProt P20023); assay: 50% inhibition of specific binding of [125I]HEL-C3d2 to Raji cells expressing CD21; two experiments
[3] = biological target: transgenic membrane IgM and IgD specific for HEL on mouse B cells; assay: cell-based or functional assay
[4] = biological target: transgenic membrane IgM and IgD specific for HEL on mouse B cells; assay: transgenic B cells incubated with 3 nM protein for 10 min, free sites read by subsequent binding of fluorescein-conjugated HEL

Sequence of CD21 on mouse B cells (mouse) (P19070 12-1025): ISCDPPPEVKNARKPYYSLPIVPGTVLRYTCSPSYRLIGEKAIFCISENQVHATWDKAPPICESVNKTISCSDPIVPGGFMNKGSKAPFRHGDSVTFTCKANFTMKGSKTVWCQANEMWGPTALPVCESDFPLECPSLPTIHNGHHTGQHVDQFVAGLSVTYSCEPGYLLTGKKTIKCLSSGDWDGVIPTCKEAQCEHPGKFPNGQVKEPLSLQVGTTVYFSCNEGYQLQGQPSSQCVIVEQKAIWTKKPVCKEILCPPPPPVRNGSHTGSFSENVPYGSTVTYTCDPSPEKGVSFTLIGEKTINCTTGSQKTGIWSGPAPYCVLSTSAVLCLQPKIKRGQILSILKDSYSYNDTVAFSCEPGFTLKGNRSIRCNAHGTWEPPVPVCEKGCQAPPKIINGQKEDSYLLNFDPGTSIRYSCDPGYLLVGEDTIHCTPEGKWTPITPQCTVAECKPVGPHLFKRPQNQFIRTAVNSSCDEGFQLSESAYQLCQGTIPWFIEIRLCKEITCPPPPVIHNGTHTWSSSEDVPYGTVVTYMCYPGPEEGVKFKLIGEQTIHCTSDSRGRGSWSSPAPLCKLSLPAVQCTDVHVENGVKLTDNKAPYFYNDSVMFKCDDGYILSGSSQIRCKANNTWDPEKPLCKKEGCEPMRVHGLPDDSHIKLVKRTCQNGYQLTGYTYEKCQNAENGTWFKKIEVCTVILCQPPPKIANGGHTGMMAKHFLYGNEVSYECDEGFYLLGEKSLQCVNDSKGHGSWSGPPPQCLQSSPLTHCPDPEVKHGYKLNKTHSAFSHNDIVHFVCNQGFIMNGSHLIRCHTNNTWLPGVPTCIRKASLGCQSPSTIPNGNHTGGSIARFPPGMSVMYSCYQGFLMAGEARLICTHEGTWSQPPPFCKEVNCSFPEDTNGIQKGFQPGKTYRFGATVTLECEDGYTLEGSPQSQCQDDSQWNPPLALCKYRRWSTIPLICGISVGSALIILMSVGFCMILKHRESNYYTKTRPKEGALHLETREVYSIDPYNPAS
Sequence of CD21 on Raji B lymphoblastoid cells (human) (P20023 21-1033): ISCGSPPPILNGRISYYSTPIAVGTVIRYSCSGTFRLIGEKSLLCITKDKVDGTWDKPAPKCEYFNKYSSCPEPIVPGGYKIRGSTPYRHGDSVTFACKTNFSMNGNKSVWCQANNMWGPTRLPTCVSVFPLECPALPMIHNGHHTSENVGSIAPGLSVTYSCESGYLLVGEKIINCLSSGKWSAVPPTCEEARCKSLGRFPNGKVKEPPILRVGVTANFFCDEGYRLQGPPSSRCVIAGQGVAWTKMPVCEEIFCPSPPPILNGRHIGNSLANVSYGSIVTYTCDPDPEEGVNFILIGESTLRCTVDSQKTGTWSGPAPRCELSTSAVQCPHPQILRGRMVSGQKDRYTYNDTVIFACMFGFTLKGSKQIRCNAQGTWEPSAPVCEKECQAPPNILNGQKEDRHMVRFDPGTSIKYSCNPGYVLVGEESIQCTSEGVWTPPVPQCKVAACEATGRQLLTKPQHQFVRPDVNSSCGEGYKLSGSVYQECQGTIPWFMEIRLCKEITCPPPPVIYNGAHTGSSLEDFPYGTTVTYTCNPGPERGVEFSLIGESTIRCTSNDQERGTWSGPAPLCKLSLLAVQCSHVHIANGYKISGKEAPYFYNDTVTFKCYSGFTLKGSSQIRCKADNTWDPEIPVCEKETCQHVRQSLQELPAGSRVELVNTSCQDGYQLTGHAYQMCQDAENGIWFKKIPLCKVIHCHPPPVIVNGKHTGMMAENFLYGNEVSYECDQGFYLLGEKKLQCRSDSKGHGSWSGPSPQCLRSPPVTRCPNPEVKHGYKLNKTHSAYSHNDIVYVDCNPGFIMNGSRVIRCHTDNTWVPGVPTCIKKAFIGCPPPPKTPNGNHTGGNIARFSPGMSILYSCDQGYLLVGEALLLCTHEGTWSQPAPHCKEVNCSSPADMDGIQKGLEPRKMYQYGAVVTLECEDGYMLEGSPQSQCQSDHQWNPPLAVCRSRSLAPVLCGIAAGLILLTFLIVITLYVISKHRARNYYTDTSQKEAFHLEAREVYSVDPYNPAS

HEL-C3d2 recombinant fusion protein (hen egg lysozyme fused to two murine C3d) (from UniProt P00698 19-147; P01027 1006-1302; P01027 1006-1302)
threshold for increase in [Ca2+]i in HEL-specific B cells [1]: 0.07 nM | IC50 [2]: 8 to 20 nM

recombinant hen egg lysozyme with YL1/2 epitope tag (HEL.YL) (from UniProt P00698 19-147)
threshold for increase in [Ca2+]i in HEL-specific B cells (nM (printed as '7 n')) [3]: 7 | % saturation of the anti-HEL sites [4]: 51%

HEL-C3d3 recombinant fusion protein (hen egg lysozyme fused to three murine C3d) (from UniProt P00698 19-147; P01027 1006-1302; P01027 1006-1302; P01027 1006-1302)
threshold for increase in [Ca2+]i in HEL-specific B cells [1]: 0.007 nM | % saturation of the anti-HEL sites [4]: 47%

HEL-C3d recombinant fusion protein (hen egg lysozyme fused to one murine C3d) (from UniProt P00698 19-147; P01027 1006-1302)
threshold for increase in [Ca2+]i in HEL-specific B cells [1]: 0.7 nM
